Consider two substances from article PMC3299833.

The stoichiometry N is the number of molecules, sites or subunits per partner or assembly.

The target in experiment [1] is E. coli expressed recombinant PKM2 (rPKM2) (human) (UniProt P14618). The experiment in a line: SEC. Background: In gel filtration, larger molecules generally elute earlier.
Experiment [2] deals with Pyruvate kinase isoform M2 (PKM2), endogenous (human (endogenous in SW620 and SW480)) (UniProt P14618). Put plainly: SEC.

Chain of Pyruvate kinase isoform M2 (PKM2), endogenous, P14618 1-531 (enzyme; other documents disagree on this pair) (P14618 whole entry, canonical isoform): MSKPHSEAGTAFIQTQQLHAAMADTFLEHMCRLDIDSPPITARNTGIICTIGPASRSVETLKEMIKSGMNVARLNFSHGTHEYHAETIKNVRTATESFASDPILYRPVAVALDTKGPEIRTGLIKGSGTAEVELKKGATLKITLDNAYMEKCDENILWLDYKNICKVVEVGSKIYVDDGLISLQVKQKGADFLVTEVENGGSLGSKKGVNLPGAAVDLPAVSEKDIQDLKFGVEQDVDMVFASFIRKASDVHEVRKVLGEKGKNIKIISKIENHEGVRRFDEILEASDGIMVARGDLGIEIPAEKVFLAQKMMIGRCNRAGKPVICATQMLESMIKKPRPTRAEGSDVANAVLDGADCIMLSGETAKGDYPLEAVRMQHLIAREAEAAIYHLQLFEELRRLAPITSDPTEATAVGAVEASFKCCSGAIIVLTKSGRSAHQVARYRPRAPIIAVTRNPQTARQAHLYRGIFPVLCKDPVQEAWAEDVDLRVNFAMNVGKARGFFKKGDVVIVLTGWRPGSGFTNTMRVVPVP
Chain of E. coli expressed recombinant PKM2 (rPKM2), P14618 1-531 (enzyme; other documents disagree on this pair) (P14618 whole entry): as the sequence (P14618 whole entry, canonical isoform) above

For the substance “E. coli expressed recombinant PKM2 (rPKM2), P14618 1-531 (enzyme; other documents disagree on this pair)”, in experiment [1], the stoichiometry N amounted to 2.
The substance “Pyruvate kinase isoform M2 (PKM2), endogenous, P14618 1-531 (enzyme; other documents disagree on this pair)” had a stoichiometry N in experiment [2] of 2.
